Measured values reported in publication PMC4007562.
pKd: −log10 of the molar value.

Columns and labels:
Assay in all cases: ITC; MicroCal iTC200, 25°C, 20 mM Tris/HCl pH 9.0, 100 mM NaCl; SH3B6, sdAb19 or Neffin at 200 μM injected from the syringe into 20 μM Nef in the cell
[1] = molecular target: HIV-1 NefNA7 (41–206, C206A) (HIV-1 (NA7))
[2] = molecular target: HIV-1 NefSF2 (45–210, C59S, C210A) (HIV-1 (SF2)) (UniProt P03407)
[3] = molecular target: HIV-1 Nef_(NL4–3) (41–206, C206A) (HIV-1 (NL4-3))

Substance | pKd [1] | dH [1] [kJ/mol] | stoichiometry N [1] | pKd [2] | dH [2] [kJ/mol] | stoichiometry N [2] | pKd [3] | dH [3] [kJ/mol] | stoichiometry N [3]
Neffin (sdAb19–SH3B6 fusion, 8 aa linker) (from UniProt P08631 77-138) (designed binder) | 7.84 | -145 | 0.67 | 8.80 | -160 | 0.66 | 8.41 | -139 | 0.65
Neffin_(triple) (Neffin with D60R/G102R/S103E in the sdAb19 subunit) (from UniProt P08631 77-138) (designed binder) |  |  |  | 7.63 | -75.9 | 1.08 |  |  | 
human Hck-SH3B6 (residues 79–138 of human Hck) (from UniProt P08631 79-138) (designed binder) |  |  |  | 7.73 | -94.2 | 0.81 |  |  | 
